± gives the standard deviation of the averaged measurements.
What follows are sequences tested on ATP (assay: switch fluorescence ratio, 500 uM ATP over buffer (Cy3 cluster intensity, sum of 5 cycles each) (fold (ratio)); higher = stronger signal-on switching upon ATP binding; sequences stand for … in TCGTCGGCAGCGTCAGATGTGTATAAGAGACAGTTTTTTTTTTTTTTTTTTTTTTTTT…TC). Conditions: aptamer strand: ATP DNA aptamer (quencher-CACCTGGGGGAGTATTGCGGAGGAAGG + anchor), 100 nM annealed; ATP concentration: 500 uM.
How it was run: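 After annealing to 100 nM quencher-labelled ATP aptamer, Cy3-labelled switching-strand clusters on a modified Illumina MiSeq flow-cell were imaged in selection buffer. A second image followed after 15 min with 500 uM ATP at 22 °C, and five such buffer/ATP cycles were done, each separated by NaOH stripping and re-annealing. The fluorescence ratio, averaged per switch-domain sequence, is summed target-cycle over summed buffer-cycle Cy3 intensity per cluster, with clusters outside 100-1000 RFU excluded.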
Work on CTTACGGGCA yielded a switch fluorescence ratio of 1.03 ± 0.033. CTTACGTCTG was tested, and the switch fluorescence ratio was 1.01 ± 0.015. Work on CTTACTATTG yielded a switch fluorescence ratio of 1.03 ± 0.05. CTTAGATGTT gave a switch fluorescence ratio of 0.963 ± 0.024. CTTAGCTAGA gave a switch fluorescence ratio of 1.0428 ± 0.00056. Sequence CTTAGGAGGG has a switch fluorescence ratio of 0.997 ± 0.013. CTTAGGGGAT was tested, and the switch fluorescence ratio was 1.03 ± 0.047. For CTTAGGGGT, the switch fluorescence ratio was 1.03 ± 0.015. CTTAGGGTAG gave a switch fluorescence ratio of 1.01 ± 0.019. For CTTAGTAGTA, the switch fluorescence ratio was 0.992 ± 0.019. With CTTATAATAG the switch fluorescence ratio was 1.036 ± 0.006. CTTATAGACT gave a switch fluorescence ratio of 1.01 ± 0.011. Work on CTTATGATTT yielded a switch fluorescence ratio of 0.998 ± 0.033. Sequence CTTATTAGGC has a switch fluorescence ratio of 1.05 ± 0.042. With CTTATTAGGT the switch fluorescence ratio was 0.985 ± 0.045. With CTTATTTGGC the switch fluorescence ratio was 1.032 ± 0.0017. Sequence CTTCACCAAC has a switch fluorescence ratio of 1.19 ± 0.013. CTTCAGGAAG gave a switch fluorescence ratio of 0.9946 ± 0.0021. CTTCATAGGG gave a switch fluorescence ratio of 0.968 ± 0.024. With CTTCGTGCAT the switch fluorescence ratio was 1.23 ± 0.069. With CTTCTCGGCG the switch fluorescence ratio was 1.08 ± 0.053. CTTCTCTAGT showed a switch fluorescence ratio of 0.9742 ± 0.0069. CTTCTGAGGG showed a switch fluorescence ratio of 1.02 ± 0.012. CTTCTGGGGA was tested, and the switch fluorescence ratio was 0.993 ± 0.02. Sequence CTTCTTCAGC has a switch fluorescence ratio of 1.44 ± 0.061. Work on CTTGAATTTT yielded a switch fluorescence ratio of 0.988 ± 0.049. In the case of CTTGCATAAC, the switch fluorescence ratio is reported as 3.51 ± 0.88. CTTGCGCCTG showed a switch fluorescence ratio of 1.01 ± 0.048. In the case of CTTGGAAATA, the switch fluorescence ratio is reported as 1.02 ± 0.013. Work on CTTGGAAGGG yielded a switch fluorescence ratio of 0.9683 ± 0.006. CTTGGCTCTT was tested, and the switch fluorescence ratio was 0.985 ± 0.01. CTTGGGACTT gave a switch fluorescence ratio of 1 ± 0.05. Sequence CTTGGGGCTT has a switch fluorescence ratio of 0.985 ± 0.014. For CTTGGGGGAA, the switch fluorescence ratio was 0.964 ± 0.013. Work on CTTGGGTCTG yielded a switch fluorescence ratio of 1 ± 0.066. CTTGGTAGTG gave a switch fluorescence ratio of 0.959 ± 0.015. For CTTGGTCAAG, the switch fluorescence ratio was 0.9834 ± 0.0062. With CTTGGTGGGG the switch fluorescence ratio was 0.969 ± 0.031. Sequence CTTGGTGTAT has a switch fluorescence ratio of 1.03 ± 0.086. Sequence CTTGGTGTTG has a switch fluorescence ratio of 1.04 ± 0.065. CTTGTAACGG gave a switch fluorescence ratio of 0.975 ± 0.01. Work on CTTGTAATTT yielded a switch fluorescence ratio of 1.02 ± 0.035. CTTGTAGGGA showed a switch fluorescence ratio of 0.9956 ± 0.0053. In the case of CTTGTATTAG, the switch fluorescence ratio is reported as 1.01 ± 0.012. Work on CTTGTCAGGG yielded a switch fluorescence ratio of 0.975 ± 0.021. In the case of CTTGTCGAGG, the switch fluorescence ratio is reported as 0.986 ± 0.042. Sequence CTTGTCTGAG has a switch fluorescence ratio of 0.9818 ± 0.0096. For CTTGTGGATG, the switch fluorescence ratio was 1 ± 0.029. For CTTGTTAGCG, the switch fluorescence ratio was 0.9807 ± 0.0076. CTTGTTAGGG gave a switch fluorescence ratio of 0.996 ± 0.032. With CTTGTTGCCG the switch fluorescence ratio was 1.01 ± 0.013. Sequence CTTGTTTAAC has a switch fluorescence ratio of 0.993 ± 0.035. CTTGTTTTGT showed a switch fluorescence ratio of 1.02 ± 0.015. In the case of CTTTAAGGTG, the switch fluorescence ratio is reported as 1.39 ± 0.062. CTTTACACAG gave a switch fluorescence ratio of 1.0006 ± 0.00047. CTTTAGGTGG gave a switch fluorescence ratio of 1.03 ± 0.037. CTTTATGTCG showed a switch fluorescence ratio of 1.02 ± 0.048. CTTTATGTTT gave a switch fluorescence ratio of 0.991 ± 0.015. CTTTATTGGG gave a switch fluorescence ratio of 0.972 ± 0.02. For CTTTATTTAG, the switch fluorescence ratio was 0.997 ± 0.023. CTTTATTTGC was tested, and the switch fluorescence ratio was 1.05 ± 0.021. Work on CTTTCATCTA yielded a switch fluorescence ratio of 1.01 ± 0.03. With CTTTCCCCGT the switch fluorescence ratio was 1.396 ± 0.0017. For CTTTCCGTGC, the switch fluorescence ratio was 1.32 ± 0.035. Work on CTTTCTAAGG yielded a switch fluorescence ratio of 1.02 ± 0.036. For CTTTCTTTGG, the switch fluorescence ratio was 0.99 ± 0.018. Work on CTTTGAAAA yielded a switch fluorescence ratio of 1.02 ± 0.02. For CTTTGAAGAG, the switch fluorescence ratio was 1.017 ± 0.0058. In the case of CTTTGAAGTT, the switch fluorescence ratio is reported as 1.01 ± 0.029. CTTTGCGTTT showed a switch fluorescence ratio of 1.02 ± 0.093. With CTTTGGAGAC the switch fluorescence ratio was 1.06 ± 0.051. CTTTGGGCCC was tested, and the switch fluorescence ratio was 0.98271 ± 0.0009. CTTTGTATTC gave a switch fluorescence ratio of 1.04 ± 0.022. In the case of CTTTGTCTTA, the switch fluorescence ratio is reported as 0.999 ± 0.05. CTTTGTGCGT gave a switch fluorescence ratio of 0.99 ± 0.029. CTTTTACTCG gave a switch fluorescence ratio of 1.01 ± 0.073. Sequence CTTTTAGGA has a switch fluorescence ratio of 0.995 ± 0.021. Sequence CTTTTATCAC has a switch fluorescence ratio of 1.25 ± 0.43. In the case of CTTTTATGGG, the switch fluorescence ratio is reported as 0.993 ± 0.023. Sequence CTTTTCTTCA has a switch fluorescence ratio of 1.01 ± 0.046. CTTTTGGGGG showed a switch fluorescence ratio of 0.991 ± 0.028. For CTTTTGTGTC, the switch fluorescence ratio was 0.9866 ± 0.0071. CTTTTTAGTC showed a switch fluorescence ratio of 1.03 ± 0.013. CTTTTTATGG was tested, and the switch fluorescence ratio was 1.03 ± 0.033. CTTTTTGAGG was tested, and the switch fluorescence ratio was 0.983 ± 0.048. For CTTTTTGGTA, the switch fluorescence ratio was 0.9975 ± 0.0084. For CTTTTTTTTC, the switch fluorescence ratio was 1.03 ± 0.078. GAAAAAAAGA was tested, and the switch fluorescence ratio was 1 ± 0.021. Sequence GAAAAAAATT has a switch fluorescence ratio of 1.02 ± 0.024. In the case of GAAAAAGACT, the switch fluorescence ratio is reported as 1.04 ± 0.089. GAAAAATCGA was tested, and the switch fluorescence ratio was 0.9882 ± 0.0056. With GAAAAATTTC the switch fluorescence ratio was 0.99 ± 0.028. In the case of GAAAAGGTCA, the switch fluorescence ratio is reported as 1.04 ± 0.019. In the case of GAAAATAGTG, the switch fluorescence ratio is reported as 1.01 ± 0.029. For GAAACTATTT, the switch fluorescence ratio was 1.03 ± 0.05. Work on GAAACTGGGG yielded a switch fluorescence ratio of 1.02 ± 0.031. With GAAAGAAACT the switch fluorescence ratio was 1.63 ± 0.98. GAAAGAAATG was tested, and the switch fluorescence ratio was 0.9994 ± 0.003. GAAAGGGTTT gave a switch fluorescence ratio of 1.01 ± 0.048. Work on GAAAGTGAGA yielded a switch fluorescence ratio of 1.01 ± 0.056. In the case of GAAAGTGGTG, the switch fluorescence ratio is reported as 0.9921 ± 0.0055. With GAAATAAAAG the switch fluorescence ratio was 0.9796 ± 0.0064. With GAAATAAATA the switch fluorescence ratio was 0.9835 ± 0.0081. GAAATAATGG showed a switch fluorescence ratio of 1.03 ± 0.041. Sequence GAAATAGGG has a switch fluorescence ratio of 0.983 ± 0.011. GAAATATGTG showed a switch fluorescence ratio of 0.9885 ± 0.0022. For GAAATCATTA, the switch fluorescence ratio was 1.016 ± 0.01. GAAATCCGAA showed a switch fluorescence ratio of 1.08 ± 0.058. Sequence GAAATCTTTT has a switch fluorescence ratio of 1.07 ± 0.17. Sequence GAAATGAGAT has a switch fluorescence ratio of 0.975 ± 0.01. Sequence GAAATGGGGT has a switch fluorescence ratio of 0.977 ± 0.037. For GAAATGGTAT, the switch fluorescence ratio was 1 ± 0.011. For GAAATTCGAG, the switch fluorescence ratio was 1.01 ± 0.033. Sequence GAAATTTATA has a switch fluorescence ratio of 1.05 ± 0.04. Sequence GAACAAGGAG has a switch fluorescence ratio of 1.03 ± 0.077. In the case of GAACAAGGTG, the switch fluorescence ratio is reported as 1.14 ± 0.22. GAACATGGGC showed a switch fluorescence ratio of 1.012 ± 0.0084. For GAACATTGGT, the switch fluorescence ratio was 0.998 ± 0.042. Sequence GAACCGATGT has a switch fluorescence ratio of 1.009 ± 0.0089. GAACCTTGAC showed a switch fluorescence ratio of 1.61 ± 0.14. Work on GAACGAGAGG yielded a switch fluorescence ratio of 1.01 ± 0.012. GAACGCGATT gave a switch fluorescence ratio of 3.92 ± 1.3. GAACGGAAGG was tested, and the switch fluorescence ratio was 1.014 ± 0.0043. Work on GAACGGGAAT yielded a switch fluorescence ratio of 1.022 ± 0.00076. Work on GAACGGGGCG yielded a switch fluorescence ratio of 1.01 ± 0.099. In the case of GAACGGGGGG, the switch fluorescence ratio is reported as 0.9624 ± 0.0053. GAACGGTATT gave a switch fluorescence ratio of 1.06 ± 0.065. For GAACGTCGGA, the switch fluorescence ratio was 1.028 ± 0.0027. In the case of GAACGTGGCA, the switch fluorescence ratio is reported as 0.9956 ± 0.0095. GAACTAGGTT showed a switch fluorescence ratio of 0.9847 ± 0.0035. GAACTATTTC gave a switch fluorescence ratio of 1.036 ± 0.0019. GAACTCGATG was tested, and the switch fluorescence ratio was 1.018 ± 0.0091. With GAACTTAGAG the switch fluorescence ratio was 1.02 ± 0.03. GAACTTGATG showed a switch fluorescence ratio of 0.997 ± 0.036. Sequence GAAGAAAGGT has a switch fluorescence ratio of 0.966 ± 0.064. GAAGAAGGTG gave a switch fluorescence ratio of 1.43 ± 0.018. For GAAGAAGTAA, the switch fluorescence ratio was 1.03 ± 0.013. With GAAGAATTAA the switch fluorescence ratio was 1.0278 ± 0.00043. In the case of GAAGAGGGGT, the switch fluorescence ratio is reported as 1.01 ± 0.014. With GAAGAGGGTG the switch fluorescence ratio was 1.03 ± 0.022. With GAAGATGCGG the switch fluorescence ratio was 1.0002 ± 0.00028. Sequence GAAGATTATA has a switch fluorescence ratio of 0.9865 ± 0.0044. In the case of GAAGCCGGAA, the switch fluorescence ratio is reported as 1.04 ± 0.021. Sequence GAAGCGGGGC has a switch fluorescence ratio of 1.36 ± 0.064. With GAAGCGGGGG the switch fluorescence ratio was 1.05 ± 0.02. Work on GAAGCTGCTT yielded a switch fluorescence ratio of 0.9908 ± 0.0073. GAAGCTTTAG gave a switch fluorescence ratio of 1.06 ± 0.019. With GAAGGAGCAG the switch fluorescence ratio was 0.944 ± 0.029. GAAGGAGGGG was tested, and the switch fluorescence ratio was 1.06 ± 0.036. GAAGGATTGT gave a switch fluorescence ratio of 1.02 ± 0.059. Sequence GAAGGCGGAT has a switch fluorescence ratio of 1.01 ± 0.018. GAAGGCGGGA gave a switch fluorescence ratio of 1.03 ± 0.097. With GAAGGGAGCG the switch fluorescence ratio was 0.984 ± 0.045.

Reference: the supplement of paper PMC10126150
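Also: ATP exposure 15 min at 22 °C before imaging.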
